Experimental data published in US20180207228A1, “PEPTIDE COMBINATIONS AND USES THEREOF FOR TREATING GRASS ALLERGY” (ALK-Abelló A/S, priority 2015, published 2018).
Where no end group is shown, it is not given here.

B1: peptide 201 (Phl p 1, 18) (peptide)
peptide: WLDAKSTWYGKPTGAGPKDN
B2: peptide 210 (Phl p 1, 183) (peptide)
peptide: KDKWIELKESWGAIWRIDTP
B3: peptide 211 (Phl p 1, 193) (peptide)
peptide: WGAIWRIDTPDKLTGPFTVR
B4: peptide 212 (Phl p 1, 211) (peptide)
peptide: VRYTTEGGTKTEAEDVIPEG
B5: peptide 213 (Phl p 1, 221) (peptide)
peptide: TEAEDVIPEGWKADTSYESK
B6: peptide 214 (Phl p 2, 40) (peptide)
peptide: EWVAMTKGEGGVWTFDSEEP
B7: peptide 216 (Phl p 2, 58) (peptide)
peptide: EPLQGPFNFRFLTEKGMKNV
B8: peptide 217 (Phl p 3, 11) (peptide)
peptide: GSDPKKLVLNIKYTRPGDSL
B9: peptide 218 (Phl p 3, 38) (peptide)
peptide: HGSEEWEPLTKKGNVWEVKS
B10: peptide 219 (Phl p 3, 47) (peptide)
peptide: TKKGNVWEVKSSKPLVGPFN
B11: peptide 202 (Phl p 1, 66) (peptide)
peptide: GRGSGSSFEIKSTKPEASSG
B12: peptide 220 (Phl p 3, 56) (peptide)
peptide: KSSKPLVGPFNFRFMSKGGM
B13: peptide 222 (Phl p 4, 8) (peptide)
peptide: KEDFLGSLVKEIPPRLLYAK
B14: peptide 223 (Phl p 4, 55) (peptide)
peptide: YIITPTNVSHIQSAVVSGRR
B15: peptide 224 (Phl p 4, 101) (peptide)
peptide: FAVVDLNKMRAVWVDGKART
B16: peptide 225 (Phl p 4, 163) (peptide)
peptide: GFGMLLRKYGIAAENVIDVK
B17: peptide 226 (Phl p 4, 195) (peptide)
peptide: SMGDDHFWAVRGGGGESFGI
B18: peptide 227 (Phl p 4, 386) (peptide)
peptide: TPFPHRKGVLFNIQYVNYWF
B19: peptide 228 (Phl p 5, 1) (peptide)
peptide: AGYTPAAPAGAEPAGKATTE
B20: peptide 229 (Phl p 5, 21) (peptide)
peptide: EQKLIEKINAGFKAALAAAA
B21: peptide 203 (Phl p 1, 74) (peptide)
peptide: EIKSTKPEASSGEPVVVHIT
B22: peptide 230 (Phl p 5, 31) (peptide)
peptide: GFKAALAAAAGVPPADKYRT
B23: peptide 231 (Phl p 5, 46) (peptide)
peptide: DKYRTFVATFGAASNKAFAE
B24: peptide 232 (Phl p 5, 84) (peptide)
peptide: TSKLDAAYKLAYKTAEGATP
B25: peptide 233 (Phl p 5, 104) (peptide)
peptide: EAKYDAYVATLSEALRIIAG
B26: peptide 234 (Phl p 5, 111) (peptide)
peptide: VATLSEALRIIAGTLEVHAV
B27: peptide 237 (Phl p 5, 166) (peptide)
peptide: PANDKFTVFEAAFNNAIKAS
B28: peptide 238 (Phl p 5, 185) (peptide)
peptide: STGGAYESYKFIPALEAAVK
B29: peptide 204 (Phl p 1, 93) (peptide)
peptide: TDDNEEPIAPYHFDLSGHAF
B30: peptide 134, Cyn d 1 (Ber01) (peptide)
peptide: SGKAFGAMAKKGQED
B31: peptide 135, Cyn d 1 (Ber02) (peptide)
peptide: FIPMKSSWGA
B32: peptide 136, Cyn d 1 (Ber02C) (peptide)
peptide: KSSWGAIWRIDPKKPLK
B33: peptide 137, Lol p 5b (Bio02A) (peptide)
peptide: KYDAYVATLTEALR
B34: peptide 138, Lol p 5b (Bio03A) (peptide)
peptide: KFIPTLVAAVKQAYAAKQ
B35: peptide 139, Lol p 5b (Bio04A) (peptide)
peptide: LKKAVTAMSEAEK
B36: peptide 140, Lol p 5a (Rye09B) (peptide)
peptide: PEVKYAVFEAALTKAIT
B37: peptide 205 (Phl p 1, 103) (peptide)
peptide: YHFDLSGHAFGAMAKKGDEQ
B38: peptide 142, Lol p 5a (Rye09B1) (peptide)
peptide: KPEVKYAVFEAALTKAIT
modifications: not fully specified
B39: peptide 143, Lol p 5a (Rye09B2) (peptide)
peptide: KKPEVKYAVFEAALTKAIT
modifications: not fully specified
B40: peptide 206 (Phl p 1, 119) (peptide)
peptide: GDEQKLRSAGELELQFRRVK
B41: peptide 207 (Phl p 1, 127) (peptide)
peptide: AGELELQFRRVKSKYPEGTK
B42: peptide 209 (Phl p 1, 163) (peptide)
peptide: LVKYVNGDGDVVAVDIKEKG

Tests used:
[1] = system: release of IFN-γ upon T cell activation; assay: Fluorospot assay, IFN-γ release (DK1-TCL01, US1-TCL01); type: cell-based, human; details: head prints TCL-02 DK1; 17 TCL-01 DK1 lines
How it was run: (§1)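 A peptide counted as a hit at ≥20 SFC/10^6 cells, stimulation index ≥2 over medium, and p and Poisson ≤0.05. Cells came from TCL01 lines, raised from allergic donors' CD8-depleted PBMCs over 14 days of natural-allergen stimulation with IL-2. They were exposed to 2 μg/ml peptide or peptide mix for 20 h at 37° C.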

[2] = system: allergen specific T cells; assay: T cell proliferation assay (72 h) on donor derived T cell lines (TCL02/TCL03); type: cell-based, human; details: for Proliferation % donor coverage (TCL-02 DK1): T cell lines TCL-02 DK1, 30 donors, hit criteria SI>=2, CPM>=1000; for Proliferation strength (TCL-02 DK1): T cell lines TCL-02 DK1, strength of response (average relative magnitude)
How it was run: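 Overlapping 20-mer and selected 15-mer grass allergen peptides were screened for proliferation using TCL02 (day 24) or TCL03 (day 34) lines. Lines came from grass-allergic donors' CD8-depleted PBMCs, primed with natural allergen mix and expanded with irradiated autologous or allogeneic APCs, PHA-P 0.5 μg/ml and rIL-2.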

[3] = system: release of IL-5 upon T cell activation; assay: Fluorospot assay, IL-5 release (DK1-TCL01, US1-TCL01); type: cell-based, human; details: head prints TCL-02 DK1; text: 25 TCL-01 DK1 lines
How it was run: as §1

[4] = target: 25 HLA Class II alleles (purified class II MHC molecules); assay: competitive radiolabelled-peptide binding to purified HLA class II (25 alleles, binder if IC50 <300 nM); worldwide phenotypic coverage of the alleles found to bind

Row | Molecule | Measured binding coverage 25 alleles [4] | also measured
1 | WGAIWRIDTPDKLTGPFTVR-OH [compound 11] | – | IFN-gamma % donor coverage (TCL-02 DK1) [1]: 8.00%; Proliferation % donor coverage (TCL-02 DK1) [2]: 46.67%; Proliferation strength (TCL-02 DK1) [2]: 4.80; IL-5-Fluorospotr % donor coverage (TCL-02 DK1) [3]: 24.00%
2 | WLDAKSTWYGKPTGAGPKDN-OH [compound 1] | – | IFN-gamma % donor coverage (TCL-02 DK1) [1]: 4.00%; Proliferation % donor coverage (TCL-02 DK1) [2]: 26.67%; Proliferation strength (TCL-02 DK1) [2]: 4.70; IL-5-Fluorospotr % donor coverage (TCL-02 DK1) [3]: 24.00%
3 | YASGKVWGQKYFKGNFERLA-OH [compound 58] | – | IFN-gamma % donor coverage (TCL-02 DK1) [1]: 0.00%; Proliferation % donor coverage (TCL-02 DK1) [2]: 20.00%; Proliferation strength (TCL-02 DK1) [2]: 2.40; IL-5-Fluorospotr % donor coverage (TCL-02 DK1) [3]: 4.00%
4 | YFKGNFERLAITKGKVDPTD-OH [compound 59] | – | IFN-gamma % donor coverage (TCL-02 DK1) [1]: 0.00%; Proliferation % donor coverage (TCL-02 DK1) [2]: 30.00%; Proliferation strength (TCL-02 DK1) [2]: 3.20; IL-5-Fluorospotr % donor coverage (TCL-02 DK1) [3]: 0.00%
5 | YHFDLSGHAFGAMAKKGDEQ-OH [compound 5] | – | IFN-gamma % donor coverage (TCL-02 DK1) [1]: 15.00%; Proliferation % donor coverage (TCL-02 DK1) [2]: 46.67%; Proliferation strength (TCL-02 DK1) [2]: 7.80; IL-5-Fluorospotr % donor coverage (TCL-02 DK1) [3]: 24.00%
6 | YIITPTNVSHIQSAVVSGRR-OH [compound 46] | – | IFN-gamma % donor coverage (TCL-02 DK1) [1]: 0.00%; Proliferation % donor coverage (TCL-02 DK1) [2]: 27.00%; Proliferation strength (TCL-02 DK1) [2]: 1.00; IL-5-Fluorospotr % donor coverage (TCL-02 DK1) [3]: 0.00%
7 | YLALLVKYAAGDGNIVAVDI-OH [compound 105] | – | IFN-gamma % donor coverage (TCL-02 DK1) [1]: 4.00%; Proliferation % donor coverage (TCL-02 DK1) [2]: 16.67%; Proliferation strength (TCL-02 DK1) [2]: 1.90; IL-5-Fluorospotr % donor coverage (TCL-02 DK1) [3]: 12.00%
8 | B1 | 47% | –
9 | B2 | 92% | –
10 | B3 | 90% | –
11 | B4 | 40% | –
12 | B5 | 58% | –
13 | B6 | 81% | –
14 | B7 | 92% | –
15 | B8 | 98% | –
16 | B9 | 39% | –
17 | B10 | 91% | –
18 | B11 | 84% | –
19 | B12 | 96% | –
20 | B13 | 100% | –
21 | B14 | 99% | –
22 | B15 | 99% | –
23 | B16 | 98% | –
24 | B17 | 57% | –
25 | B18 | 97% | –

Row | Molecule | Measured binding coverage 25 alleles [4] | also measured
26 | B19 | 69% | –
27 | B20 | 98% | –
28 | B21 | 71% | –
29 | B22 | 92% | –
30 | B23 | 99% | –
31 | B24 | 93% | –
32 | B25 | 99% | –
33 | B26 | 94% | –
34 | B27 | 99% | –
35 | B28 | 99% | –
36 | B29 | 78% | –
37 | B30 | 47% | –
38 | B31 | 19% | –
39 | B32 | 76% | –
40 | B33 | 98% | –
41 | B34 | 99% | –
42 | B35 | 62% | –
43 | B36 | 99% | –
44 | B37 | 88% | –
45 | B38 | 100% | –
46 | B39 | 99% | –
47 | B40 | 70% | –
48 | B41 | 71% | –
49 | B42 | 85% | –
